The values below come from patent US20220347268A1 (MEDICENNA THERAPEUTICS, published 2022).

The target of assay [1] is T1, IL-13Rα1.
T1 construct: also called IL13Ra1
T1 chain: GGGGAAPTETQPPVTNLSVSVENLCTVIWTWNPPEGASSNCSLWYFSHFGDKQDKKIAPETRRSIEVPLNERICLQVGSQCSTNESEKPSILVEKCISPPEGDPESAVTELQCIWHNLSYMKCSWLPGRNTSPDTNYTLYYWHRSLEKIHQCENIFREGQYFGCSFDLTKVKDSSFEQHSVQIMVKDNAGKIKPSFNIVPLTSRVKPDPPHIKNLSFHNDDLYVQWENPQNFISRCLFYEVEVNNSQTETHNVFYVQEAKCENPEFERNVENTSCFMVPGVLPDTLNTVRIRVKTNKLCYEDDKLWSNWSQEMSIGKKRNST
As to the kind of experiment: SPR, kinetic (column K1). Background: Surface plasmon resonance follows binding to a sensor surface in real time, without labels.

Assay [2] has as its target T1, IL-13Rα1. As to the kind of experiment: SPR, kinetic (column K-1).
In assay [3] the target is T2, IL-13Rα2.
T2 construct: also called IL13Ra2; CD213A2
T2 chain: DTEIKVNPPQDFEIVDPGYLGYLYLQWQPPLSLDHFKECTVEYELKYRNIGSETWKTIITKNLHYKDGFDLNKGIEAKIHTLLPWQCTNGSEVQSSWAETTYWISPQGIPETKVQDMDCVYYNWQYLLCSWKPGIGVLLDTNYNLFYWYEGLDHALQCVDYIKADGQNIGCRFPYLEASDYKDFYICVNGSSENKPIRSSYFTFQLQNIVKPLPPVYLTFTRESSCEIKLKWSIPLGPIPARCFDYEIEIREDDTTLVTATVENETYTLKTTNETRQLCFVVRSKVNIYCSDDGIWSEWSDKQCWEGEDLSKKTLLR
Briefly: SPR, kinetic (column K1).

Assay [4] concerns the target T2, IL-13Rα2. As to the kind of experiment: SPR, kinetic (column K-1).
Assay [5] concerns the target T1, IL-13Rα1. Briefly: SPR, column KD (eq).

One may read the kon as a measure of how fast the partners come together. Low readings indicate slower complex formation, high ones faster complex formation. For orientation: koff means a measure of how fast the partners let go of each other. In general, Kd refers to the concentration at which binding is half-saturated. The low end stands for a tighter complex, the high end for a looser complex.

B1: A5 (ligand)
cytokine: PGPVPPSTALIELIEELINITQNQKAPLCNGSMVWSINLTAGMYCAALESLINVSGCSAIEKTQRMLSGFCPHKVSAGQFSSLHVKGSKIEVAQFVKDLLHHLRALMREGQFN
notes: grouped under 'IL-13Rα1 specific'; also called IL-13 variant A5
The molecule B1 returned a kon in the assay with IL-13Rα1 [1] of 2.8e+06 M⁻¹ s⁻¹. The off-rate constant (koff) with IL-13Rα1 [2] was 0.0082 s⁻¹.

B2: A8 (ligand)
cytokine: PGPVPPSTAIRELIEELINITQNQKAPLCNGSMVWSINLTAGMYCAALESLINVSGCSAIEKTQRMLSGFCPHKVSAGQFSSLHVRSSRIEVAQFVKDLLHHLRTLFREGQFN
notes: grouped under 'IL-13Rα1 specific'; also called IL-13 variant A8
The molecule B2 displayed a kon with IL-13Rα1 [1] of 1.64e+06 M⁻¹ s⁻¹. The molecule also had a koff in the assay with IL-13Rα1 [2] of 0.0033 s⁻¹.

B3: C4 (ligand)
cytokine: PGPVPPSTAVRELIEELVNITQNQKAPLCNGSMVWSINLTAGMYCAALESLINVSGCSAIEKTQRMLSGFCPHKVSAGQFSSLHVRDTRIEVAQFVKDLLNHLKELFTEGQFN
notes: grouped under 'IL-13Rα2 specific'; also called IL-13 variant C4
In turn, B3 came in with an on-rate (kon) with IL-13Rα2 [3] of 1.94e+06 M⁻¹ s⁻¹. The koff with IL-13Rα2 [4] was determined as 0.000764 s⁻¹.

B4: B4 (ligand)
cytokine: PGPVPPSTALSELIEELINITQNQKAPLCNGSMVWSINLTAGMYCAALESLINVSGCSAIEKTQRMLSGFCPHKVSAGQFSSLHVKGSMIEVAQFVKDLLYHLRTLFREGQFN
notes: grouped under 'IL-13Rα1 specific'; also called IL-13 variant B4
As to B4, the kon with IL-13Rα1 [1] came to 1.36e+06 M⁻¹ s⁻¹. The off-rate (koff) in the assay with IL-13Rα1 [2] worked out at 0.024 s⁻¹.

B5: A7 (ligand)
cytokine: PGPVPPSTAIRELIEELINITQNQKAPLCNGSMVWSINLTAGMYCAALESLINVSGCSAIEKTQRMLSGFCPHKVSAGQFSSLHVRGSKIEVAQFVKDLLHHLRALFREGQFN
notes: grouped under 'IL-13Rα1 specific'; also called IL-13 variant A7
Molecule B5 registered an on-rate constant (kon) with IL-13Rα1 [1] of 2.9e+06 M⁻¹ s⁻¹. This molecule displayed an off-rate constant (koff) in the assay with IL-13Rα1 [2] of 0.0034 s⁻¹.

B6: B2 (ligand)
cytokine: PGPVPPSTALRELIEELINITQNQKAPLCNGSMVWSINLTAGMYCAALESLINVSGCSAIEKTQRMLSGFCPHKVSAGQFSSLHVTGSKIEVAQFVKDLLYHLRALFREGQFN
notes: grouped under 'IL-13Rα1 specific'; also called IL-13 variant B2
In turn, B6 gave an on-rate constant (kon) with IL-13Rα1 [1] of 6.3e+06 M⁻¹ s⁻¹. In addition, the koff in the assay with IL-13Rα1 [2] was determined as 0.0017 s⁻¹.

B7: D7 (ligand)
cytokine: PGPVPPSTAARELIEELFNITQNQKAPLCNGSMVWSINLTAGMYCAALESLINVSGCSAIEKTQRMLSGFCPHKVSAGQFSSLHVKKTRIEVAQFVKDLLIHLRKLFKEGQFN
notes: grouped under 'IL-13Rα2 specific'; also called IL-13 variant D7
Molecule B7 came in with an association rate constant (kon) in the assay with IL-13Rα2 [3] of 1.77e+07 M⁻¹ s⁻¹. Also, the koff with IL-13Rα2 [4] came out at 5.37e-05 s⁻¹.

B8: A11 (ligand)
cytokine: PGPVPPSTAVRELIEELINITQNQKAPLCNGSMVWSINLTAGMYCAALESLINVSGCSAIEKTQRMLSGFCPHKVSAGQFSSLHVRSSKIEVAQFVKDLLFHLRTLFREGQFN
notes: Grouped under 'IL-13Rα1 specific'; also called IL-13 variant A11
On to B8, for which the kon in the assay with IL-13Rα1 [1] stood at 1.64e+07 M⁻¹ s⁻¹. Besides, the dissociation rate constant (koff) with IL-13Rα1 [2] came out at 0.0013 s⁻¹.

B9: A6 (ligand)
cytokine: PGPVPPSTAIRELIEELLNITQNQKAPLCNGSMVWSINLTAGMYCAALESLINVSGCSAIEKTQRMLSGFCPHKVSAGQFSSLHVMKSKIEVAQFVKDLLHHLRALFREGQFN
notes: grouped under 'IL-13Rα1 specific'; also called IL-13 variant A6
The molecule B9 had a kon with IL-13Rα1 [1] of 1.77e+06 M⁻¹ s⁻¹. The molecule also had a koff in the assay with IL-13Rα1 [2] of 0.0033 s⁻¹.

B10: C11 (ligand)
cytokine: PGPVPPSTAHRELIEELVNITQNQKAPLCNGSMVWSINLTAGMYCAALESLINVSGCSAIEKTQRMLSGFCPHKVSAGQFSSLHVTGRKIEVAQFVKDLLLHLKKLFKEGQFN
notes: grouped under 'IL-13Rα2 specific'; also called IL-13 variant C11
Consider B10, for which the affinity with IL-13Rα1 [5], expressed as Kd, was 1.6 µM. Besides, the kon with IL-13Rα2 [3] amounted to 6.41e+06 M⁻¹ s⁻¹. Moreover, the koff with IL-13Rα2 [4] came out at 9.18e-07 s⁻¹.

B11: B6 (ligand)
cytokine: PGPVPPSTATRELIEELINITQNQKAPLCNGSMVWSINLTAGMYCAALESLINVSGCSAIEKTQRMLSGFCPHKVSAGQFSSLHVRGSKIEVAQFVKDLLYHLRTLFREGQFN
notes: grouped under 'IL-13Rα1 specific'; also called IL-13 variant B6
The molecule B11 gave a kon with IL-13Rα1 [1] of 1.4e+06 M⁻¹ s⁻¹. The molecule also yielded an off-rate (koff) with IL-13Rα1 [2] of 0.0082 s⁻¹.
